Test results from the supplement of paper PMC9170038.

Test system: MS2 coat protein
Assay: apparent KD of MS2 coat protein; designed switch direction (-1 OFF switch, 1 ON switch): -1; higher = weaker reporter binding
Method in brief: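 Three titration conditions were used: no input, 200 uM small-molecule ligand, and an oligonucleotide input. In each, SNAP-549-labelled MS2 coat protein was raised from 0.7 or 1.5 nM, doubling, to 3 µM over designed RNA switches transcribed on Illumina chips by stalled E. coli RNA polymerase. Curve fits of normalised cluster fluorescence gave values whose per-design median over clusters is the apparent KD.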

[1] = Eterna round: R95, input ligand: microRNA oligo, concentration not stated
[2] = Eterna round: R95, input ligand: FMN 200 uM
[3] = Eterna round: R95, input ligand: none
[4] = input ligand: microRNA oligo, concentration not stated

| Sequence | apparent KD of MS2 coat protein (input ligand: FMN 200 uM) [nM] | apparent KD of MS2 coat protein (input ligand: none) [nM] | apparent KD of MS2 coat protein [1] [nM] | further results |
| --- | --- | --- | --- | --- |
| CGGUCACUAGGAUAUCAGGAAAACUACAUGAGGAUCACCCAUGUACUGAGUGUAGGAGACUGAGAAGGAGUUCUUA [EX5 C.4] (Eterna round: R97, puzzle: Exclusion 5) | 31.5 | 22.3 | – | – |
| CUUUUGUGAGGAUAUCAGUAGUAAAAUAAUAAUAUUACUACUGAGAAGGCACAUGAGGAUCACCCAUGUUCCUC [Fiskers Ex 4 Super stable 44 mod 1] (puzzle: Exclusion 4) | – | – | 39 | – |
| GCCUCGUCAGGAUAUUGGGAAGGCUGUUUUAUGAUUGCCCACAAGAAGGGACAUGAGGAUCACCCAUGUACAUU [Eternabot (L1) Solution 51] (Eterna round: R97, puzzle: Exclusion 4) | 63.3 | 32.5 | – | – |
| CUUUUGUGAGGAUAUCAGUAGUAAAUAUAUAAAAUUACUACUGAGAAGGCACAUGAGGAUCACCCAUGUUCCUC [salish99_ex3_r3_079] (puzzle: Exclusion 4) | – | – | 38.8 | – |
| AGAUCACAUGAGGAUCACCCAUGUGAGGAUAUCGACUGAACAGCUUCGGCUGUUCAGUCGAGAAGGCACAAUUA [EX1 #41] (Eterna round: R97, puzzle: Exclusion 1) | 45.1 | 23.8 | – | – |
| GCAAAGGUAGGAUAUCCACUGUGCAACAUGAGGAUCACCCAUGUGGUUCUUACCAUAAUUGGAGAAGGGCCGUGCA [Inrariri] (puzzle: Exclusion 5) | – | – | 19.3 | apparent KD of MS2 coat protein [2]: 19.7 nM; apparent KD of MS2 coat protein [3]: 24.2 nM |
| CAACUGCAUGUGAGGAUAUGCACCGGCCAAGCCGGGCAGAAGGCACAUGAGGAUCACCCAUGUCAUCCUAUUGC [Esusgeraon] (puzzle: Brourd's mod of Exclusion 4) | – | – | 12.4 | – |
| AACUUGUAAGGAUAUACAUGAGGAUCACCCAUGUGUCCCACGAACCGACAGGUCGUCUGUAGAAGGUGCAACAU [Eternabot (L1) Solution 88] (Eterna round: R97, puzzle: Exclusion 3) | 29 | 27.4 | – | – |
| GAGGCAUGCUGAGGUCCACACAUGAGGAUCACCCAUGUAAUGACAAGCUUUUUCCUCGUCUUAUCGCUAUCGCGUUC [Dilaenla] (puzzle: Sensor v3, turn-off variant 1) | – | – | 28.4 | apparent KD of MS2 coat protein [2]: 15.5 nM; apparent KD of MS2 coat protein [3]: 15 nM |
| AAUCGACAUGAGGAUCACCCAUGUUAGGAUAUGCGGAAUCGGUCAAUCAAUCGAUCAAGCAGAAGGGACGGGUU [Candy Rainbow] (puzzle: Exclusion 1) | – | – | 27.4 | apparent KD of MS2 coat protein [2]: 29.1 nM; apparent KD of MS2 coat protein [3]: 34.2 nM |
| AGAGUGCUGCGAGGAUAUACAUGAGGAUCACCCAUGUGGUCCUGUGAGGGAAAACCUCACAGGAUGUAGAAGGCGCAGUACUCA [Mat - Exclusion NG 2 - Mod of JL - D47] (Eterna round: R96, puzzle: Exclusion NG 2) | 53.2 | 16.3 | – | apparent KD of MS2 coat protein [4]: 10.9 nM |
| CUGGUCCGAGGAUAUAUUAUGUGAUACAUGAGGAUCACCCAUGUUAUAUGAUGGAUGUAAAUAGAAGGCGGACUAG [JL-ex5-3.15] (puzzle: Exclusion 5) | – | – | 43.4 | apparent KD of MS2 coat protein [2]: 48 nM; apparent KD of MS2 coat protein [3]: 58.5 nM |
| CCUCUACAUGAGGAUCACCCAUGUGAGGAUAUCAAAGUCAGAGCGGCUCUCUGACUCAUGAGAAGGUGCAUGAA [EX1 A.13] (Eterna round: R97, puzzle: Exclusion 1) | 30.6 | 21.6 | – | – |
| CAGUACUGAGGAUAUACAUGAGGAUCACCCAUGUGCCUCAGGUAGGAUACUACCAUUAGUAGAAGGCAGUACUG [Fiskers Ex 3 828 mod 18] (puzzle: Exclusion 3) | – | – | 128 | – |
| UUAAUUAAUGUCAGGAUAUCUAGAGCCUCGGCUCUAGAGAAGGGACAUGAGGAUCACCCAUGUCACUCUUAAUU [BmEx4/3-C2] (Eterna round: R97, puzzle: Brourd's mod of Exclusion 4) | 19.5 | 18.7 | – | – |
| AAUAGCUGAGGAUAUACAUGAGGAUCACCCAUGUAUUAGUAGGCUGGGAAUAAAUCGUGUAGAAGGCAGGAUGA [Ceerge] (puzzle: Exclusion 3) | – | – | 16.7 | – |
| CAAAAGGGAGGAUAUACAUGAGGAUCACCCAUGUACGGUUCACGGGUAGGUGCGUAUAGUAGAAGGCCCGCAUA [Abiace] (Eterna round: R97, puzzle: Exclusion 3) | 172 | 83.4 | – | – |
| AAUUCACAUGAGGAUCACCCAUGUCAGGAUAUGGUUUCACGUUUUUCUUUUCUUGAUUCCAGAAGGGACAGCUA (puzzle: Exclusion 1) | – | – | 58.6 | – |

| Sequence | apparent KD of MS2 coat protein (input ligand: FMN 200 uM) [nM] | apparent KD of MS2 coat protein (input ligand: none) [nM] | apparent KD of MS2 coat protein [1] [nM] | further results |
| --- | --- | --- | --- | --- |
| AGCAUGCUAGGAUAUACGGGACAUUAGGGUUUGUCGUGUGGACAUGAGGAUCACCCAUGUAGAAGGAGCGUGCA [Mat - Exclusion 2 - Mod of Hyphema - D92] (puzzle: Exclusion 2) | – | – | 46.5 | – |
| AAUAGCAAGCAAGAUCCUAACAUGAGGAUCACCCAUGUGCUCGUCUUGUAAAGUACUAUCACGAAAGUGAUAGUACA [Sensor 3, v1 - 49] (puzzle: Sensor v3, turn-off variant 1) | – | – | 211 | apparent KD of MS2 coat protein [2]: 29.7 nM; apparent KD of MS2 coat protein [3]: 31.9 nM |
| CUCCGACAUGAGGAUCACCCAUGUUAGGAUAUCCCACGCAGGUAGUGAGAGAAUCUGUGGAGAAGGAGCAGGGU [Eternabot (L2) Solution 74] (Eterna round: R97, puzzle: Exclusion 1) | 21.9 | 24.5 | – | – |
| GUCCAGUUAGGAUAUCAAUGCCACAACAUGAGGAUCACCCAUGUUUGGGUCCCUCACCAAUGAGAAGGAACGGGAC [Esteenedso] (puzzle: Exclusion 5) | – | – | 32.1 | – |
| GGUUGACAUGAGGAUCACCCAUGUGAGGAUAUGCGAGAGAAAAAAGUGAGGAAGGAAUGCAGAAGGCGCUGUCG [salish99-ex1_r3_018] (puzzle: Exclusion 1) | – | – | 54.3 | apparent KD of MS2 coat protein [2]: 43.3 nM; apparent KD of MS2 coat protein [3]: 57.7 nM |
| AGAUGGCGAGGAUAUACAUGAGGAUCACCCAUGUGAGAGAAGAAAGUGAGGAAGAAAAGUAGAAGGCGCUGUCA [Mat - Exclusion 3 - Mod of Salish D11] (puzzle: Exclusion 3) | – | – | 54.4 | apparent KD of MS2 coat protein [2]: 184 nM; apparent KD of MS2 coat protein [3]: 60 nM |
| GGUUAACAUGAGGAUCACCCAUGUGAGGAUAUGUUCAGGAUGAUAAAUAGAAGAGAUAAUAGAAGGCACUUUGG [Bubbles5] (Eterna round: R97, puzzle: Exclusion 1) | 57.6 | 39.9 | – | – |
| AGAUAGUCAGGAUAUUAGUAAUAAAAGGAUAAUAAUAUUACUGAGAAGGGACAUGAGGAUCACCCAUGUAAUAU [JR_Ex4_Sub061] (Eterna round: R97, puzzle: Exclusion 4) | 44.5 | 27.5 | – | – |
| CCGGAAAUAGAGGAUAUAGGACUGGAUACAGUCCUAGAAGGCUAUACAUGAGGAUCACCCAUGUGUCCUACCGG [Fiskers Ex 6 - 63] (puzzle: Exclusion 6) | – | – | 14.1 | – |
| CAUGGAUGUGAGCCGCAUUACAUGAGGAUCACCCAUGUCAACAAGCUUUUUGCUUAUCUUACGCGGCGGCAUCAAAA [Enisusti] (puzzle: Sensor v3, turn-off variant 1) | – | – | 11.8 | apparent KD of MS2 coat protein [2]: 13.4 nM; apparent KD of MS2 coat protein [3]: 9.39 nM |
| AAAUAACAAGCGAGAUCCUACAUGAGGAUCACCCAUGUGCUCGUCUUAAUAAGUACUAUCACGAAAGUGAUAGUACA [Mat - Sensor v3 - turn-off var 1 - Eli Mod - D67] (puzzle: Sensor v3, turn-off variant 1) | – | – | 471 | apparent KD of MS2 coat protein [2]: 16.6 nM; apparent KD of MS2 coat protein [3]: 16 nM |
| GGGCCCGGAGGAUAUACAAUUUUGGGCCGAAAGGCCCGGGUACAUGAGGAUCACCCAUGUAGAAGGCCGGGCCC [-41.7, -39.1 kcal A 24%, 5a,0] (Eterna round: R97, puzzle: Exclusion 2) | 134 | 32.4 | – | – |
| ACUUAUUGAGGAUAUACAUAAAUUUACAUGAGGAUCACCCAUGUUCUUCUAUGUAUAUAUGUAGAAGGCAGAAGAU [Mat - Exclusion 5 - JL Mod - D32] (Eterna round: R97, puzzle: Exclusion 5) | 29.2 | 19.3 | – | – |
| GCAUGCUAUGUCAGGAUAUACCUGUGGAUACAUAGGUAGAAGGGACAUGAGGAUCACCCAUGUCCUAAUCAUGC [Fiskers BMX 4 - 24] (Eterna round: R96, puzzle: Brourd's mod of Exclusion 4) | 11.6 | 13.4 | – | apparent KD of MS2 coat protein [4]: 10 nM |
| AAUUUACAUGAGGAUCACCCAUGUCAGGAUAUGGUUUUAUUUUUUUUUUUUUUUGAUUCCAGAAGGGACAGUUA (puzzle: Exclusion 1) | – | – | 22.7 | – |
| ACAAGUUUUUAGAUUCUUAACAUGAGGAUCACCCAUGUGCUCGUCUUGUUUGUACUAUCACCGAAGGUGAUAGUACA (Eterna round: R97, puzzle: Sensor, turn-off variant 1) | 69.9 | 70 | – | – |
| AUUAUAACAUAGGAUAUCGAAUUUAUCAUUUAACGAGAAGGAUGAACAUGAGGAUCACCCAUGUGGUAUCAUGG [Mat - Exclusion 6 - JL Mod - D3] (puzzle: Exclusion 6) | – | – | 173 | apparent KD of MS2 coat protein [2]: 55 nM; apparent KD of MS2 coat protein [3]: 33.5 nM |
| AAUAAUGAGUAGGAUAUCACUAGCGAUAGCUAGUGAGAAGGGCUCACAUGAGGAUCACCCAUGUGUUCCAAUAA [Mod4 Ex6/6-A4 by Brourd] (Eterna round: R97, puzzle: Exclusion 6) | 88.1 | 31.2 | – | – |
